Experimental data published in PMC6384864, “Identification of a Novel Specific Cucurbitadienol Synthase Allele in Siraitia grosvenorii Correlates with High Catalytic Efficiency” (Molecules, 2019).

Experiments:
[1] = tested on: T1, CC(C)=CCC/C(C)=C/CC/C(C)=C/CC/C=C(\C)CC/C=C(\C)CC[C@@H]1OC1(C)C; test: GC-MS of reaction product, yeast homogenate (Methods; Results text says purified variants); assay type: biochemical, Siraitia grosvenorii; conditions: 30 °C, pH 7.0, 100 mM sodium phosphate, 0.1% Triton X-100, allele 50R573L
T1 construct: full length, 759 residues; yeast codon-optimised in pCEV-G4-Km, S. cerevisiae BY4742, no tag told
From the text: GC-MS of reaction product, yeast homogenate (Methods; Results text says purified variants) on SgCS (cucurbitadienol synthase, wild type 50R573L)

[2] = tested on: T1, CC(C)=CCC/C(C)=C/CC/C(C)=C/CC/C=C(\C)CC/C=C(\C)CC[C@@H]1OC1(C)C; test: as above; assay type: biochemical, Siraitia grosvenorii; conditions: 30 °C, pH 7.0, 100 mM sodium phosphate, 0.1% Triton X-100, natural allele 50C573L

SgCS (cucurbitadienol synthase, wild type 50R573L) (Siraitia grosvenorii; R50C), sequence (chain, as listed by the source R50C): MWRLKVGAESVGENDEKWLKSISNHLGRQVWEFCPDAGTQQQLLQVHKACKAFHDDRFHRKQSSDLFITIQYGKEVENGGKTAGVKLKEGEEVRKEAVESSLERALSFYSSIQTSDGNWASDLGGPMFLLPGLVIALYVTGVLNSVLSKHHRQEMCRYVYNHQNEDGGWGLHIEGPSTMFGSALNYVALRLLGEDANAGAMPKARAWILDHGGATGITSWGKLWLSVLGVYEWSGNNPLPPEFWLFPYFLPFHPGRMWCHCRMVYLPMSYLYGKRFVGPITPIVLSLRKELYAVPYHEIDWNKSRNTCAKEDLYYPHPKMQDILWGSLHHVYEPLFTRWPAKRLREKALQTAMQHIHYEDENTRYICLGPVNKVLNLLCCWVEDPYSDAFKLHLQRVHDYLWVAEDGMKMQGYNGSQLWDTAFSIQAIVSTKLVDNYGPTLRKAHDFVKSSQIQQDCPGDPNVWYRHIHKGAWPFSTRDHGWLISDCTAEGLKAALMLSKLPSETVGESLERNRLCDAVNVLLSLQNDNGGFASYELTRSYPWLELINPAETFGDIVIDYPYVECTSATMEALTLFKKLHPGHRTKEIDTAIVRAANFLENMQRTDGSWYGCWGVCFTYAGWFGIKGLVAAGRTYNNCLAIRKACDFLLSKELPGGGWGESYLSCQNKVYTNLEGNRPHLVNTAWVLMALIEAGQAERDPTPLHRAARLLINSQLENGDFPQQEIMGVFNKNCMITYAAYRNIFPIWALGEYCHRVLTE
SgCS (cucurbitadienol synthase, wild type 50R573L) (Siraitia grosvenorii), sequence (chain, as listed by the source): as the sequence (chain, as listed by the source R50C) above, with C50R counted along it

In the case of “SgCS (cucurbitadienol synthase, wild type 50R573L) (Siraitia grosvenorii)”, the Km [1] is reported as 0.29 µM, the kcat [1] is reported as 0.0147 s⁻¹ and the kcat/Km [1] is reported as 49700 M⁻¹ s⁻¹.

“SgCS (cucurbitadienol synthase, wild type 50R573L) (Siraitia grosvenorii; R50C)” was tested, and the Km [2] was 0.32 µM, the kcat [2] was 0.0128 s⁻¹ and the kcat/Km [2] was 40200 M⁻¹ s⁻¹.
